This assay has as its target T1, VEGF(8-109) (human, UniProt P15692).
T1 chain: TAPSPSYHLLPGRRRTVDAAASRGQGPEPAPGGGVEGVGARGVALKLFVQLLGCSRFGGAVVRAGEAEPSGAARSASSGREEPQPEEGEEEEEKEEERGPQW
Briefly: SPR, 25C. On the technique in general: SPR reads the build-up and loss of mass on a sensor chip optically.

For nine molecules, Kd results are on record in patent publication US20090010925 (published 2009).

B1: Y0313-2 (antibody, V domains shown)
VH: EVQLVESGGGLVQPGGSLRLSCAASGYDFTHYGMNWVRQAPGKGLEWVGWINTYTGEPTYAADFKRRFTFSLDTSKSTAYLQMNSLRAEDTAVYYCAKYPHYYVNERKSHWYFDVWGQGTL
VL: DIQLTQSPSSLSASVGDRVTITCRANEQLSNYLNWYQQKPGKAPKVLIYFTSSLHSGVPSRFSGSGSGTDFTLTISSLQPEDFATYYCQQYSTVPWTFGQGTKVEIKR
Consider B1, for which the Kd (in general, a measure of binding affinity in units of concentration) was found to be 360 pM.

B2: Y0241-6 (antibody, V domains shown)
VH: EVQLVESGGGLVQPGGSLRLSCAASGYDYTNYGINWVRQAPGKGLEWVGWINTYTGEPTYAADFKRRFTFSLDTSKSTAYLQMNSLRAEDTAVYYCAKYPHYYGSSHWYFDVWGQGTL
VL: DIQLTQSPSSLSASVGDRVTITCRANEQLSNYLNWYQQKPGKAPKVLIYFTSSLHSGVPSRFSGSGSGTDFTLTISSLQPEDFATYYCQQYSTVPWTFGQGTKVEIKR
In turn, B2 came in with a Kd of 2700 pM.

B3: Y0242-1 (antibody, V domains shown)
VH: EVQLVESGGGLVQPGGSLRLSCAASGYTFTNYGMNWVRQAPGKGLEWVGWINTWTGEPTYAADFKRRFTFSLDTSKSTAYLQMNSLRAEDTAVYYCAKYPHYYGSSHWYFDVWGQGTL
VL: DIQLTQSPSSLSASVGDRVTITCRANEQLSNYLNWYQQKPGKAPKVLIYFTSSLHSGVPSRFSGSGSGTDFTLTISSLQPEDFATYYCQQYSTVPWTFGQGTKVEIKR
For the molecule B3, the Kd amounted to 1800 pM.

B4: Y0239-12 (antibody, V domains shown)
VH: EVQLVESGGGLVQPGGSLRLSCAASGYTFTNYGMNWVRQAPGKGLEWVGWINTYTGEPTYAADFKRRFTFSLDTSKSTAYLQMNSLRAEDTAVYYCAKYPHYYAHEKKSHWYFDVWGQGTL
VL: DIQLTQSPSSLSASVGDRVTITCRANEQLSNYLNWYQQKPGKAPKVLIYFTSSLHSGVPSRFSGSGSGTDFTLTISSLQPEDFATYYCQQYSTVPWTFGQGTKVEIKR
As to B4, the affinity, expressed as Kd, was 600 pM.

B5: Y0241-7 (antibody, V domains shown)
VH: EVQLVESGGGLVQPGGSLRLSCAASGYDWTNYGINWVRQAPGKGLEWVGWINTYTGEPTYAADFKRRFTFSLDTSKSTAYLQMNSLRAEDTAVYYCAKYPHYYGSSHWYFDVWGQGTL
VL: DIQLTQSPSSLSASVGDRVTITCRANEQLSNYLNWYQQKPGKAPKVLIYFTSSLHSGVPSRFSGSGSGTDFTLTISSLQPEDFATYYCQQYSTVPWTFGQGTKVEIKR
Turning to B5, the Kd turned out to be 3000 pM.

B6: Y0240-1 (antibody, V domains shown)
VH: EVQLVESGGGLVQPGGSLRLSCAASGYTFTNYGMNWVRQAPGKGLEWVGWINTYTGEPTYAADFKRRFTFSLDTSKSTAYLQMNSLRAEDTAVYYCAKYPHYYLTDHKSHWYFDVWGQGTL
VL: DIQLTQSPSSLSASVGDRVTITCRANEQLSNYLNWYQQKPGKAPKVLIYFTSSLHSGVPSRFSGSGSGTDFTLTISSLQPEDFATYYCQQYSTVPWTFGQGTKVEIKR
B6 yielded an equilibrium dissociation constant (Kd) of 500 pM.

B7: Y0239-2 (antibody, V domains shown)
VH: EVQLVESGGGLVQPGGSLRLSCAASGYTFTNYGMNWVRQAPGKGLEWVGWINTYTGEPTYAADFKRRFTFSLDTSKSTAYLQMNSLRAEDTAVYYCAKYPHYYKNDKSSHWYFDVWGQGTL
VL: DIQLTQSPSSLSASVGDRVTITCRANEQLSNYLNWYQQKPGKAPKVLIYFTSSLHSGVPSRFSGSGSGTDFTLTISSLQPEDFATYYCQQYSTVPWTFGQGTKVEIKR
B7 registered a Kd of 4600 pM.

B8: Y0239-19 (antibody, V domains shown)
VH: EVQLVESGGGLVQPGGSLRLSCAASGYTFTNYGMNWVRQAPGKGLEWVGWINTYTGEPTYAADFKRRFTFSLDTSKSTAYLQMNSLRAEDTAVYYCAKYPHYYVNERKSHWYFDVWGQGTL
VL: DIQLTQSPSSLSASVGDRVTITCRANEQLSNYLNWYQQKPGKAPKVLIYFTSSLHSGVPSRFSGSGSGTDFTLTISSLQPEDFATYYCQQYSTVPWTFGQGTKVEIKR
B8 displayed a dissociation constant (Kd) of 300 pM.

B9: Y0261-6 (antibody, V domains shown)
VH: EVQLVESGGGLVQPGGSLRLSCAASGYTFTNYGMNWVRQAPGKGLEWVGWINTYTGEPTYAADFKRRFTFSLDTSKSTAYLQMNSLRAEDTAVYYCAKYPHYYLKDKKSHWYFDVWGQGTL
VL: DIQLTQSPSSLSASVGDRVTITCRANEQLSNYLNWYQQKPGKAPKVLIYFTSSLHSGVPSRFSGSGSGTDFTLTISSLQPEDFATYYCQQYSTVPWTFGQGTKVEIKR
As to B9, the Kd was found to be 600 pM.
